4 molecules from article PMC11772155, “Solid-Phase-Supported Chemoenzymatic Synthesis and Analysis of Chondroitin Sulfate Proteoglycan Glycopeptides” (Angewandte Chemie (International ed. in English), 2024) can be followed below.

Ends that are not written are not given here. Peptide text beside a SMILES is read from it. * marks the point of attachment. X4 = O=C(O)[C@H]1O[C@@H](O[C@H]2[C@@H](O)[C@@H](CO)O[C@@H](O[C@H]3[C@@H](O)[C@@H](CO)O[C@@H](O[C@@H]4CO[C@@H](*)[C@H](O)[C@H]4O)[C@@H]3O)[C@@H]2O)[C@H](O)[C@@H](O)[C@@H]1O

The target of assay [1] is biotinylated tetrasaccharide linkage region bearing glycopeptide 10 (bikunin). Briefly: BLI; biotinylated peptide or glycopeptides immobilised on streptavidin coated sensors; cathepsin G in solution. (In general: BLI is a label-free optical method that tracks binding on a fibre tip over time.)
The target of assay [2] is biotinylated non-sulfated chondroitin dodecasaccharide glycopeptide 18 (bikunin). Described as above.
Assay [3] has as its target biotinylated sulfated 10-mer CS-bearing glycopeptide 20 (bikunin). Described as above.
Assay [4] has as its target biotinylated sulfated 8-mer CS-bearing glycopeptide 19 (bikunin). Described as above.
The target in assay [5] is biotinylated sulfated 12-mer CS-bearing glycopeptide 21 (bikunin). Described as above.
Assay [6] concerns the target T1, Human Neutrophil Cathepsin G (Homo sapiens, UniProt P08311).
T1 construct: Human Neutrophil Cathepsin G was purchased from Athens; purchased Athens Research & Technology, Inc. (Athens, Georgia)
T1 sequence (P08311 21-243 limits assumed): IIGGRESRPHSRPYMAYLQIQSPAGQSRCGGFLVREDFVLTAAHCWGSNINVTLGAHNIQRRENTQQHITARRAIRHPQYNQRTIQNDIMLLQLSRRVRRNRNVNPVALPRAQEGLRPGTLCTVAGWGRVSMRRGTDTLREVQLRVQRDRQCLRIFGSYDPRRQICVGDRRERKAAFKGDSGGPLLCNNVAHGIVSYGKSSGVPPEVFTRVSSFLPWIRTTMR
In words: BLI (biolayer interferometry) binding assay of immobilized biotinylated compounds with Cathepsin G. The conditions noted are these: biotinylated compounds immobilized on streptavidin sensors, Cathepsin G at 2000, 1000, 500, 250 nM in PBS containing 0.005% P20, read-out: KD (nM) with Cathepsin G. From the text:
With structurally defined glycopeptides in hand, we aim to better understand the structural features needed for bikunin glycopeptide binding. Cathepsin G (CatG), a neutrophil serine protease, plays a crucial role in regulating various physiological processes, including inflammation, digestion, smooth muscle contraction, and tissue remodeling.[64] While CatG has been reported to interact with CSPG, the structural requirement of CSPG binding has not been established.[25] To measure the binding affinity towards CatG, peptides 5 and glycopeptides 10, 18–21 were biotinylated and immobilized on streptavidin coated sensors for biolayer interferometry (BLI) studies. Biotinylated 50 kDa CS and CS-A were also immobilized on the sensors for comparison. […]
General procedure of glycopeptide biotinylation
To a solution of peptide or glycopeptide in DMSO/H 2O (1/1, 0.1 ml) was added NHS-LC-Biotin (4 equiv.) and diisoproylethylamine (pH ~ 8.5). The reaction was incubated at 37 °C for 2 h. Then the mixture was dried in vacuo and purified by HPLC.
General procedure for BLI binding assay
The binding assay was performed on the Octet K2 System (Pall ForteBio). The biotinylated compounds were incubated with streptavidin (SA) sensors for 2 min. The sensor was then balanced in the assay buffer (PBS containing 0.005% P20) and dipped into Cathepsin G solution in assay buffer at 2000 nM, 1000 nM, 500 nM, 250 nM concentrations.
After 5 min of association, the sensor was brought back to the previous assay buffer for a 5 min dissociation step. At the end of the assay, the sensor was regenerated in 2 M NaCl to remove the bound protein. Each measurement was repeated 3 times on the same sensor. The control assay was performed with another sensor loaded with a 2 mM biotin solution.
Figure S3. Binding of peptide and glycopeptides a) 5, b) 10 , c) 18 , d) 19 , e) 20 , f) 21 , g) commercially available biotinylated 50 kDa CS, and h) 50 kDa CS-A to neutrophil Cathepsin G as measured by BLI ( a-h respectively). The biotinylated compounds (50 nM) were immobilized on streptavidin coated biosensors, and human neutrophil Cathepsin G was captured on biosensors with four concentrations at 2000 nM, 1000 nM, 500 nM, 250 nM.
Fitting curves were shown in red lines. […]

“Cathepsin G (from UniProt P08311 21-244) (enzyme)”: the Kd (usually the concentration at which binding is half-saturated) in assay [1] is 0.65 µM; in assay [2], 0.49 µM; in assay [3], 0.074 µM; in assay [4] it was 0.049 µM; in assay [5] it was 0.056 µM.

As to `CC(=O)N[C@H]1[C@H](O[C@H]2[C@H](O)[C@@H](O)[C@H](O[C@H]3[C@@H](O)[C@@H](CO)O[C@@H](O[C@H]4[C@@H](O)[C@@H](CO)O[C@@H](O[C@@H]5CO[C@@H](OC[C@H](NC(=O)CNC(=O)[C@H](CCC(=O)O)NC(=O)[C@H](CCC(=O)O)NC(=O)[C@H](CCC(=O)O)NC(=O)[C@H](CCC(N)=O)NC(=O)[C@@H]6CCCN6C(=O)[C@H](CC(C)C)NC(=O)[C@@H](NC(=O)[C@H](C)N)C(C)C)C(=O)NCC(=O)NCC(=O)NCC(=O)N[C@@H](CCC(N)=O)C(=O)N[C@@H](CC(C)C)C(=O)N[C@H](C(=O)N[C@H](C(=O)N[C@@H](CCC(=O)O)C(=O)N[C@H](C(=O)N[C@H](C(=O)N[C@@H](CCCCN)C(=O)N[C@@H](CCCCN)C(=O)N[C@@H](CCC(=O)O)C(=O)N[C@@H](CC(=O)O)C(=O)N[C@@H](CO)C(=O)O)[C@@H](C)O)C(C)C)[C@@H](C)O)C(C)C)[C@H](O)[C@H]5O)[C@@H]4O)[C@@H]3O)O[C@@H]2C(=O)O)O[C@H](CO)[C@H](OS(=O)(=O)O)[C@@H]1O[C@@H]1O[C@H](C(=O)O)[C@@H](O[C@@H]2O[C@H](CO)[C@H](OS(=O)(=O)O)[C@H](O[C@@H]3O[C@H](C(=O)O)[C@@H](O[C@@H]4O[C@H](CO)[C@H](OS(=O)(=O)O)[C@H](O[C@@H]5O[C@H](C(=O)O)[C@@H](O[C@@H]6O[C@H](CO)[C@H](O)[C@H](O[C@@H]7O[C@H](C(=O)O)[C@@H](O)[C@H](O)[C@H]7O)[C@H]6NC(C)=O)[C@H](O)[C@H]5O)[C@H]4NC(C)=O)[C@H](O)[C@H]3O)[C@H]2NC(C)=O)[C@H](O)[C@H]1O` [Compound 21], the Kd in assay [6] worked out at 56 ± 8 nM.

For `CC(C)C[C@H](NC(=O)[C@H](CCC(N)=O)NC(=O)CNC(=O)CNC(=O)CNC(=O)[C@H](CO[C@@H]1OC[C@@H](O[C@@H]2O[C@H](CO)[C@H](O)[C@H](O[C@@H]3O[C@H](CO)[C@H](O)[C@H](O[C@@H]4O[C@H](C(=O)O)[C@@H](O)[C@H](O)[C@H]4O)[C@H]3O)[C@H]2O)[C@H](O)[C@H]1O)NC(=O)CNC(=O)[C@H](CCC(=O)O)NC(=O)[C@H](CCC(=O)O)NC(=O)[C@H](CCC(=O)O)NC(=O)[C@H](CCC(N)=O)NC(=O)[C@@H]1CCCN1C(=O)[C@H](CC(C)C)NC(=O)[C@@H](NC(=O)[C@H](C)N)C(C)C)C(=O)N[C@H](C(=O)N[C@H](C(=O)N[C@@H](CCC(=O)O)C(=O)N[C@H](C(=O)N[C@H](C(=O)N[C@@H](CCCCN)C(=O)N[C@@H](CCCCN)C(=O)N[C@@H](CCC(=O)O)C(=O)N[C@@H](CC(=O)O)C(=O)N[C@@H](CO)C(=O)O)[C@@H](C)O)C(C)C)[C@@H](C)O)C(C)C` [Compound 10] (H-AVLPQEEEGS(X4)GGGQLVTEVTKKEDS-OH), the Kd in assay [6] came out at 650 ± 80 nM.

Turning to “H-AVLPQEEEGSGGGQLVTEVTKKEDS [Compound 5]”, the equilibrium dissociation constant (Kd) in assay [6] came to 400 ± 40 nM.
